According to article PMC4900533:

Experiments:
[1] = confocal microscopy, apical marker gp135, MDCKII; conditions: glycan lost; control: wild type
[2] = immunoblot of PNGase F-treated MDCKII lysates, densitometry; conditions: glycan lost; control: wild type

B1: ABCG2: Q596 (protein)
parent chain: MSSSNVEVFIPVSQGNTNGFPATASNDLKAFTEGAVLSFHNICYRVKLKSGFLPCRKPVEKEILSNINGIMKPGLNAILGPTGGGKSSLLDVLAARKDPSGLSGDVLINGAPRPANFKCNSGYVVQDDVVMGTLTVRENLQFSAALRLATTMTNHEKNERINRVIQELGLDKVADSKVGTQFIRGVSGGERKRTSIGMELITDPSILFLDEPTTGLDSSTANAVLLLLKRMSKQGRTIIFSIHQPRYSIFKLFDSLTLLASGRLMFHGPAQEALGYFESAGYHCEAYNNPADFFLDIINGDSTAVALNREEDFKATEIIEPSKQDKPLIEKLAEIYVNSSFYKETKAELHQLSGGEKKKKITVFKEISYTTSFCHQLRWVSKRSFKNLLGNPQASIAQIIVTVVLGLVIGAIYFGLKNDSTGIQNRAGVLFFLTTNQCFSSVSAVELFVVEKKLFIHEYISGYYRVSSYFLGKLLSDLLPMRMLPSIIFTCIVYFMLGLKPKADAFFVMMFTLMMVAYSASSMALAIAAGQSVVSVATLLMTICFVFMMIFSGLLVNLTTIASWLSWLQYFSIPRYGFTALQHNEFLGQNFCPGLNATGNNPCNYATCTGEEYLVKQGIDLSPWGLWKNHVALACMIVIFLTIAYLKLLFLKKYS
**Q.** With B1 as the protein, how does the localisation_or_trafficking [1] read?
**A.** Its localisation_or_trafficking is “no change”.

**Q.** What about the expression_or_secretion [2] of the same protein?
**A.** Its expression_or_secretion is “decreases”.
